Paper PMC12445079

Target: Bacillus subtilis GapA (glyceraldehyde-3-phosphate dehydrogenase), His-tagged (Bacillus subtilis) (UniProt P09124)
UniProt P09124, sequence (P09124 whole entry): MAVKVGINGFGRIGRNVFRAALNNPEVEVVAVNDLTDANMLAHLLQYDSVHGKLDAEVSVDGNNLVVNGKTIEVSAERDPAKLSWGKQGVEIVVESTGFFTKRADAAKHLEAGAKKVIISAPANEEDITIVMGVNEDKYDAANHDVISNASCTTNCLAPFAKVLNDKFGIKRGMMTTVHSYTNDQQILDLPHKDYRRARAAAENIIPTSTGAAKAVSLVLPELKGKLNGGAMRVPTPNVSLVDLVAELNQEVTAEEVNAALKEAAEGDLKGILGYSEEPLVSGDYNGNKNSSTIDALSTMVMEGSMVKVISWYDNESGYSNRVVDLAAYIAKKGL

B1: Bacillus subtilis HPr-G54D, His-tagged (natural protein)
chain: MAQKTFKVTADSGIHARPATVLVQTASKYDADVNLEYNGKTVNLKSIMGVMSLDIAKGAEITISASGADENDALNALEETMKSEGLGE
catalytic efficiency kcat/KM of GapA with E4P in the presence of HPr-G54D (GAPDH alone: 1.05): 730 M⁻¹ s⁻¹ | catalytic efficiency kcat/KM of GapA with G3P in the presence of HPr-G54D (GAPDH alone: 219): 68500 M⁻¹ s⁻¹

B2: Bacillus subtilis histidine-containing phosphocarrier protein (HPr), His-tagged (natural protein)
chain: MAQKTFKVTADSGIHARPATVLVQTASKYDADVNLEYNGKTVNLKSIMGVMSLGIAKGAEITISASGADENDALNALEETMKSEGLGE
catalytic efficiency kcat/KM of GapA with E4P in the presence of HPr (GAPDH alone: 1.05): 1880 M⁻¹ s⁻¹ | catalytic efficiency kcat/KM of GapA with G3P in the presence of HPr (GAPDH alone: 219): 57400 M⁻¹ s⁻¹

B3: Bacillus subtilis HPr-S46E, G54D, His-tagged (natural protein)
chain: MAQKTFKVTADSGIHARPATVLVQTASKYDADVNLEYNGKTVNLKEIMGVMSLDIAKGAEITISASGADENDALNALEETMKSEGLGE
catalytic efficiency kcat/KM of GapA with E4P in the presence of HPr-G54D, S46E (GAPDH alone: 1.05): 3780 M⁻¹ s⁻¹ | catalytic efficiency kcat/KM of GapA with G3P in the presence of HPr-G54D, S46E (GAPDH alone: 219): 164000 M⁻¹ s⁻¹

B4: Bacillus subtilis HPr-S46E, His-tagged (natural protein)
chain: MAQKTFKVTADSGIHARPATVLVQTASKYDADVNLEYNGKTVNLKEIMGVMSLGIAKGAEITISASGADENDALNALEETMKSEGLGE
catalytic efficiency kcat/KM of GapA with E4P in the presence of HPr-S46E (GAPDH alone: 1.05): 2600 M⁻¹ s⁻¹ | catalytic efficiency kcat/KM of GapA with G3P in the presence of HPr-S46E (GAPDH alone: 219): 38800 M⁻¹ s⁻¹
